Earlier results on one molecule are cited in publication PMC2908543, “Uropathogenic Escherichia coli Modulates Immune Responses and Its Curli Fimbriae Interact with the Antimicrobial Peptide LL-37” (PLoS Pathogens, 2010).

In this data set the test system is Pseudomonas aeruginosa. As to conditions: ref [47]. From the text:
Biofilm inhibition by antimicrobial polypeptides has previously been described for Pseudomonas aeruginosa. […] A direct interaction with biofilm components was not investigated in these studies. The effect was rather related to an influence of LL-37 on the bacterial gene expression profile or an influence of lactoferrin on free iron. These and our findings stress an important anti-biofilm role of antimicrobial polypeptides in host defense. It is likely that the anti-biofilm activit ...

B1: lactoferrin (protein, UniProt P02788 20-710, looked up)
Lactotransferrin: GRRRSVQWCAVSQPEATKCFQWQRNMRKVRGPPVSCIKRDSPIQCIQAIAENRADAVTLDGGFIYEAGLAPYKLRPVAAEVYGTERQPRTHYYAVAVVKKGGSFQLNELQGLKSCHTGLRRTAGWNVPIGTLRPFLNWTGPPEPIEAAVARFFSASCVPGADKGQFPNLCRLCAGTGENKCAFSSQEPYFSYSGAFKCLRDGAGDVAFIRESTVFEDLSDEAERDEYELLCPDNTRKPVDKFKDCHLARVPSHAVVARSVNGKEDAIWNLLRQAQEKFGKDKSPKFQLFGSPSGQKDLLFKDSAIGFSRVPPRIDSGLYLGSGYFTAIQNLRKSEEEVAARRARVVWCAVGEQELRKCNQWSGLSEGSVTCSSASTTEDCIALVLKGEADAMSLDGGYVYTAGKCGLVPVLAENYKSQQSSDPDPNCVDRPVEGYLAVAVVRRSDTSLTWNSVKGKKSCHTAVDRTAGWNIPMGLLFNQTGSCKFDEYFSQSCAPGSDPRSNLCALCIGDEQGENKCVPNSNERYYGYTGAFRCLAENAGDVAFVKDVTVLQNTDGNNNEAWAKDLKLADFALLCLDGKRKPVTEARSCHLAMAPNHAVVSRMDKVERLKQVLLHQQAKFGRNGSDCPDKFCLFQSETKNLLFNDNTECLARLHGKTTYEKYLGPQYVAGITNLKKCSTSPLLEACEFLRK
notes: antimicrobial polypeptide
On to B1, for which the “bacterial surface motility mediated by type IV pili” value is reported as “increased bacterial surface motility”.
